Publication PMC7705432 (Cell Research, 2020)

B1: H014 Fab (Fab, V domains shown)
VH: VQLVQSGAEVKKPGATVKISCKVSGYSFSNYYIHWVKQAPGKSLEWIGYIDPFNGGTSDNLKFKGAATLTADTSTDTAYMELSSLRSEDTAVYYCARSEYDPYYVMDYWGQGTTVTVSS
VL: IVLTQSPFQSVSPKEKVTITCRASQSISSNLHWYQQKPDQSPKLLIKYASQSISGIPSRFSGSGSGTDFTLTINSLEAEDFGIYFCQQTNFWPYIFGQGTKLEIL
B2: P17 Fab (Fab, V domains shown)
VH: QQLVESGGGVVQPGRSLRLSCAASGFTFSSYAMHWVRQAPGKGLEWVAVISYDGSNKYYADSVKGRFTISRDNSKNTLYLQMNSLRAEDTAVYYCARHATLMNNKDIWGQGTLVTVSS
VL: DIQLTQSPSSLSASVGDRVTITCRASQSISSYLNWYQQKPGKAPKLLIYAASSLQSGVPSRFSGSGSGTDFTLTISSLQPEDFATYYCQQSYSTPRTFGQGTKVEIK
notes: also called P17 Fabs

Target: T1, SARS-CoV-2 S trimer (SARS-CoV-2, Wuhan-Hu-1 (GenBank …, stabilised))
T1 construct: also called Spike (S) protein
Experiment: cryo-EM structure
Conditions: both partners purified

Binder	stoichiometry N
B1	3 Fabs per S trimer
B2	3 Fabs per S trimer
